Where two headings read alike, the source gives them in different places.
Legend:
[1] = molecular target: T1, cell surface-expressed human αvβ8 (human, UniProt P06756 31-1048; P26012 43-769); experiment: cell-based or functional assay
[2] = molecular target: T1, cell surface-expressed human αvβ8; experiment: FACS titration on SNB19 human astrocytoma cells
Experimental: (§1) The affinities of humanized, affinity-matured anti-αvβ8 IgGs (ADWA16-1, ADWA16-2, ADWA16-3, and ADWA16-4), a chimeric version of the parent ADWA16 murine IgG (ADWA16-chimera), and ADWA16 were measured on SNB19 human astrocytoma cells by FACS. IgGs were incubated at various concentrations with SNB19 cells for 1 hr at RT in PBS. Cells were washed twice with PBS and binding was detected by incubation with fluorescently-labeled anti-human (ADWA16-1, ADWA16-2, ADWA16-3, ADWA16-4, and ADWA16-chimera) or anti-mouse (ADWA16) secondary antibodies followed by two PBS wash steps and analysis by FACS. Binding affinities (shown in Table 3) were calculated using curve-fitting software.

[3] = molecular target: T2, recombinant human αvβ8 (human, UniProt P06756 31-992; P26012 43-684); experiment: bio-layer interferometry, IgG on anti-human Fab-CH1 tips, αvβ8 200 nM
T2 construct: Soluble recombinant heterodimer used as analyte at 200 nM in BLI
T2 sequence (P06756 31-992 limits assumed, chain 1 of 2): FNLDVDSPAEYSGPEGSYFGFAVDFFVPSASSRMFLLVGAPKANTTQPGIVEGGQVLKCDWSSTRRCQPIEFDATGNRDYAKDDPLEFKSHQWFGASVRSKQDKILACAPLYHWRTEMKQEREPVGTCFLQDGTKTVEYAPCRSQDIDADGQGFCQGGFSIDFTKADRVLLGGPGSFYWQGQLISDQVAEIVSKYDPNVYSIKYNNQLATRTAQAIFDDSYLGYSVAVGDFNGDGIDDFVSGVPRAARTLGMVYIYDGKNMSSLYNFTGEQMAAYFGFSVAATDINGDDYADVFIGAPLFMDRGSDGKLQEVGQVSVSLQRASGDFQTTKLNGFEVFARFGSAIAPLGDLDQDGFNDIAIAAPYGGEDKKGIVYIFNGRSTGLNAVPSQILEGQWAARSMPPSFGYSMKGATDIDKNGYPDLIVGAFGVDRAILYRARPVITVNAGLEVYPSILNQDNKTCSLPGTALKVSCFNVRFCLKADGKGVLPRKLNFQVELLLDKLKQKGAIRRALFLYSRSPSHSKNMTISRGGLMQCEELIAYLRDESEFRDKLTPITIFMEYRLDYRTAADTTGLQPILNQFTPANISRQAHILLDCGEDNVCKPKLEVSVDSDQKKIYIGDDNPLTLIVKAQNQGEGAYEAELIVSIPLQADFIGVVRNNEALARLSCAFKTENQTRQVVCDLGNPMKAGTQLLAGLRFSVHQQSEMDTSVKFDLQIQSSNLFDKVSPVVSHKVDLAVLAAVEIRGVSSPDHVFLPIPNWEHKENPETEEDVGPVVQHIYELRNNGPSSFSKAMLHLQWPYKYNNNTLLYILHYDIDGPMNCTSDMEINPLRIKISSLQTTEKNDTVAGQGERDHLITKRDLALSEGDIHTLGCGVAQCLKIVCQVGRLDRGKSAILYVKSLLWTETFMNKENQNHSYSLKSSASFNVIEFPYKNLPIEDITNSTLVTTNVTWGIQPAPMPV
T2 sequence (P26012 43-684 limits assumed, chain 2 of 2): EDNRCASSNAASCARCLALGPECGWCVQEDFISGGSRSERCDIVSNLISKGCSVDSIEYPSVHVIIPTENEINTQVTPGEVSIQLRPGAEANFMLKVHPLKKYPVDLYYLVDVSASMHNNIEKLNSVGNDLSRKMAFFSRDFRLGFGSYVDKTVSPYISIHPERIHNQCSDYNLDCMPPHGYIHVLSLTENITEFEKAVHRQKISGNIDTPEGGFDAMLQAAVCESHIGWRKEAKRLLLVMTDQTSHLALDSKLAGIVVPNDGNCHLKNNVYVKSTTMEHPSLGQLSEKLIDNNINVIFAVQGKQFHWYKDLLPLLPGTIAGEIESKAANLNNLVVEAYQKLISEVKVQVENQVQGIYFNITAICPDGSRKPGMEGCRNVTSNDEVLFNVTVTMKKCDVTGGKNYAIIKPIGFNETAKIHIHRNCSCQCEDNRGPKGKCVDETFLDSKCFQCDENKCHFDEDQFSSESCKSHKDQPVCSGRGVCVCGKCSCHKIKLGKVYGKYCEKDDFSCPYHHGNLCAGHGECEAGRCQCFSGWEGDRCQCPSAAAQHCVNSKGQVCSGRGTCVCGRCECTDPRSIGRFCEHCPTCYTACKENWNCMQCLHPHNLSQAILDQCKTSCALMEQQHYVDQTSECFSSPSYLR
Experimental: (§2) The affinities of humanized, affinity-matured anti-αvβ8 IgGs (ADWA16-3 and ADWA16-3.2) and a chimeric version of the parent ADWA16 murine IgG (ADWA16-chimera) were measured for recombinant human and mouse αvβ8 using bio-layer interferometry. Anti-human Fab-CH1 tips were loaded with humanized anti-αvβ8 IgGs or chimeric ADWA16 followed by an association step with either human or mouse αvβ8 (200 nM) and a subsequent dissociation step. All steps were carried out in binding buffer (25 mM Tris, 0.15 M NaCl, 0.05% Tween-20, pH 7.5). Binding affinities (shown in Table 4) were calculated using curve-fitting software.

[4] = molecular target: T3, recombinant mouse αvβ8 (mouse, UniProt P43406 31-988; Q0VBD0 43-681, limits assumed); experiment: as above
T3 construct: Soluble recombinant heterodimer used as analyte at 200 nM in BLI
T3 sequence (P43406 31-988 limits assumed, chain 1 of 2): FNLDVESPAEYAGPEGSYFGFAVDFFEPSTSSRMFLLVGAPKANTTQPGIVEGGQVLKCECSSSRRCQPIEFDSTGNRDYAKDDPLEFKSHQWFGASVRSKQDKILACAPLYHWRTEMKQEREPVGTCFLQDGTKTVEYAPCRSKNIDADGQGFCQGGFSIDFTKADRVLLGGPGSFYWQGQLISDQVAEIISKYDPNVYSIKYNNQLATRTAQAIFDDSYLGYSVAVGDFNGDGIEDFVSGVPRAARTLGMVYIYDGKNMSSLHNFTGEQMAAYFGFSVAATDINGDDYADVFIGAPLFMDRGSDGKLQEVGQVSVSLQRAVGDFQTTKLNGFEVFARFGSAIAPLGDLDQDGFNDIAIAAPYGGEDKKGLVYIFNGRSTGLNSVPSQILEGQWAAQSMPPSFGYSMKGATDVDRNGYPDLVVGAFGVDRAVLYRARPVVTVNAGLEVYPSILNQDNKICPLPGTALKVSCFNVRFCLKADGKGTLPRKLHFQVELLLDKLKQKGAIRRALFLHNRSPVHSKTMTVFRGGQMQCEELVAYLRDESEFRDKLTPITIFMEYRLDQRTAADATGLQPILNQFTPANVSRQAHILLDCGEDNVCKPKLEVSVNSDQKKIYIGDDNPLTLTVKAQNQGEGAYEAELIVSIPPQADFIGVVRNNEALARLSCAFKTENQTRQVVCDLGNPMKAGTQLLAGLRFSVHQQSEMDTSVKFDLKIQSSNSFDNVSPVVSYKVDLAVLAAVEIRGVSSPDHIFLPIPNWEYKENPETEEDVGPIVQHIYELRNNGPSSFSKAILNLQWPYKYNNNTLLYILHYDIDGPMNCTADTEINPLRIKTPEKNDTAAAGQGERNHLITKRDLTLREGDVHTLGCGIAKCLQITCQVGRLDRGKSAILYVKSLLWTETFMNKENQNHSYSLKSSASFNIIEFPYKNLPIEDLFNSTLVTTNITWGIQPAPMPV
T3 sequence (Q0VBD0 43-681 limits assumed, chain 2 of 2): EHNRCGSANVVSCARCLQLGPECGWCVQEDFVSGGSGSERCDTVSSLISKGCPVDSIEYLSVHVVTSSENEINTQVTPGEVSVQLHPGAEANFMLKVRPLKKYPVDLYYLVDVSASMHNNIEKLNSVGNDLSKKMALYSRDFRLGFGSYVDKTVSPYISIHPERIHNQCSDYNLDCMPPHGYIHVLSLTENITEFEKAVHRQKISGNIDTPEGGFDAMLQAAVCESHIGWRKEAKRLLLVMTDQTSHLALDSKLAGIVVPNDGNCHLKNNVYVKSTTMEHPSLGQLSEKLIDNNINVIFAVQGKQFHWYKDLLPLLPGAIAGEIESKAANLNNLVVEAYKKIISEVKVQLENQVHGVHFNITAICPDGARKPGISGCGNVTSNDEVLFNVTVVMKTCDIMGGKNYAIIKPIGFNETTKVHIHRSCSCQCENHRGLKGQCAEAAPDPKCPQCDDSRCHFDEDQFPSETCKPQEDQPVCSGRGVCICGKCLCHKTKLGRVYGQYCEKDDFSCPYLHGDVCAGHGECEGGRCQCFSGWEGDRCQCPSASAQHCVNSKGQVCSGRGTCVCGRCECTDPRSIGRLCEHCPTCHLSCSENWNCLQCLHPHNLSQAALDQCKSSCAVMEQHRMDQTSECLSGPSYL
Experimental: as §2

[5] = molecular target: T2, recombinant human αvβ8; experiment: as above; remark: listed apart in the source
Experimental: (§3) The affinities of humanized, affinity-matured anti-αvβ8 IgGs (ADWA16-1, ADWA16-2, ADWA16-3, and ADWA16-4) and a chimeric version of the parent ADWA-16 murine IgG (ADWA16-chimera) were measured for recombinant human and mouse αvβ8 using bio-layer interferometry. Anti-human Fab-CH1 tips were loaded with humanized anti-αvβ8 IgGs (ADWA16-1, ADWA16-2, ADWA16-3, and ADWA16-4) or chimeric ADWA-16 followed by an association step with either human or mouse αvβ8 (200 nM) and a subsequent dissociation step. All steps were carried out in binding buffer (25 mM Tris, 0.15 M NaCl, 0.05% Tween-20, pH 7.5). Binding affinities (shown in Table 2) were calculated using curve-fitting software. FIGS. 3A-3E show association/dissociation curves for each antibody.

[6] = molecular target: T3, recombinant mouse αvβ8; experiment: as above; remark: listed apart in the source
Experimental: as §3

[7] = molecular target: T1, cell surface-expressed human αvβ8; experiment: FACS titration on SNB19 human astrocytoma cells; Example 7 FACS series on SNB19 cells, run beside ADWA16-3.2
Experimental: (§4) The affinities of humanized, affinity-matured, and N-glycosylation site removed anti-αvβ8 IgGs (ADWA16-3 and ADWA16-3.2) were measured on SNB19 human astrocytoma cells by FACS. IgGs were incubated at various concentrations with SNB19 cells for 1 hr at RT in PBS. Cells were washed twice with PBS and binding was detected by incubation with fluorescently-labeled anti-human secondary antibodies followed by two PBS wash steps and analysis by FACS.

[8] = molecular target: T4, cell surface expressed human αvβ3 (SW480 cells transfected to express αvβ3) (human, UniProt P06756 31-1048; P05106 27-788); experiment: flow cytometry on transfected SW480 cells
T4 construct: whole, on cells
Experimental: (§5) The binding of ADWA16 and ADWA16-3.2 to cell surface expressed human αvβ3, αvβ5, αvβ6, and αvβ8 was tested by FACS. Flow cytometry was performed with either ADWA16-3 or ADWA16-3.2 with mock transfected SW480 cells (that express only αvβ5 integrin). SW480 cells were also transfected to express αvβ3 or αvβ6. SNB19 cells expressed αvβ3, αvβ5, and αvβ8.

[9] = molecular target: T5, cell surface expressed human αvβ6 (SW480 cells transfected to express αvβ6) (human, UniProt P06756 31-1048; P18564 22-788); experiment: flow cytometry on transfected SW480 cells
T5 construct: whole, on cells
Experimental: as §5

[10] = molecular target: T6, cell surface expressed human αvβ5 (mock transfected SW480 cells) (human, UniProt P06756 31-1048; P18084 24-799); experiment: flow cytometry on mock transfected SW480 cells (express only αvβ5); panel head 'A09 SW antihuman con'
T6 construct: whole, on cells
Experimental: as §5

[11] = molecular target: T1, cell surface-expressed human αvβ8; experiment: FACS titration on SNB19 human astrocytoma cells; Table 3 FACS series on SNB19 cells, run beside ADWA16, 16-chimera and 16-1 to 16-4
Experimental: as §1

[12] = molecular target: T7, surface-expressed mouse αvβ8 on murine astrocytes (mouse, UniProt P43406 31-1044; Q0VBD0 22-767); experiment: FACS titration on murine astrocytes
T7 construct: whole, on cells
Experimental: The affinities of ADWA16, ADWA11, and ADWA16-3.2 were measured on murine astrocytes by FACS. IgGs were incubated at various concentrations with the cells for 1 hr at RT in PBS. Cells were washed twice with PBS and binding was detected by incubation with fluorescently-labeled anti-human or anti-mouse secondary antibodies followed by two PBS wash steps and analysis by FACS.

[13] = molecular target: T1, cell surface-expressed human αvβ8; experiment: FACS on SNB19 human astrocytoma cells, fluorescent secondary antibody
Experimental: (§6) The affinities of ADWA16-3.2 and ADWA11 were measured on SNB19 human astrocytoma cells by FACS. IgGs were incubated at various concentrations with SNB19 cells for 1 hour at RT in PBS. Cells were washed twice with PBS and binding was detected by incubation with fluorescently-labeled anti-human secondary antibodies followed by two PBS wash steps and analysis by FACS. Binding affinities were calculated using curve-fitting software.

[14] = molecular target: T1, cell surface-expressed human αvβ8; experiment: FACS titration on SNB19 human astrocytoma cells; Example 13 FACS series on SNB19 cells, run beside ADWA11
Experimental: as §6

[15] = molecular target: T1, cell surface-expressed human αvβ8; experiment: FACS titration on SNB19 human astrocytoma cells; Example 7 FACS series on SNB19 cells, run beside ADWA16-3
Experimental: as §4

[16] = molecular target: T1, cell surface-expressed human αvβ8; experiment: FACS titration on SNB19 human astrocytoma cells; Example 13 FACS on SNB19 cells; detected with anti-human secondary, ADWA11 format not stated
Experimental: as §6

T1 sequence (P06756 31-1048, chain 1 of 2): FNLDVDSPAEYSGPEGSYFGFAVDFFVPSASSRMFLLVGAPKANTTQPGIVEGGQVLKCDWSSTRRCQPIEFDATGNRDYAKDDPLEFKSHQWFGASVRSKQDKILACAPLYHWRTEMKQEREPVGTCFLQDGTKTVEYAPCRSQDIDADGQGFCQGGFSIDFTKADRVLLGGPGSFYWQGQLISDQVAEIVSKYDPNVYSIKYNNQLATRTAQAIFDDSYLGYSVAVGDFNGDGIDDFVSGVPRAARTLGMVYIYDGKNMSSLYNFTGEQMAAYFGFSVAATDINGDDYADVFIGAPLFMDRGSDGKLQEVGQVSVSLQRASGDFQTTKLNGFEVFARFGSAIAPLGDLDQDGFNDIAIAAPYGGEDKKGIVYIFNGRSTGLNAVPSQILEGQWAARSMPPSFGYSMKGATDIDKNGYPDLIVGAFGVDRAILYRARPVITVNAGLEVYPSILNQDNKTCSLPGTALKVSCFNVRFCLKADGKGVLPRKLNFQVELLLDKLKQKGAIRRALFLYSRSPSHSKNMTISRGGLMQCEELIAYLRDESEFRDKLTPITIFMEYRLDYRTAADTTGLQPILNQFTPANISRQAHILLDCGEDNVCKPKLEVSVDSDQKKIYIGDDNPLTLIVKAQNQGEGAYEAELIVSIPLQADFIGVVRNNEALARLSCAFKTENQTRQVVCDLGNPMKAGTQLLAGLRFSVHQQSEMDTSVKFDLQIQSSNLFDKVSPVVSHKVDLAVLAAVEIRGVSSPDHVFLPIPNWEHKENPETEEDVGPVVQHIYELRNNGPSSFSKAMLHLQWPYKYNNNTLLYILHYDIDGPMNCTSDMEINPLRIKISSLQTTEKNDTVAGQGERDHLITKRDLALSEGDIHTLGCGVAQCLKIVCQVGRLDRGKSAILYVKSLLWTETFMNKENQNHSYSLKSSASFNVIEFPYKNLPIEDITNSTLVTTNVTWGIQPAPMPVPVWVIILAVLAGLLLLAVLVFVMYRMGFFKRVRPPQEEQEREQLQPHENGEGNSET
T1 sequence (P26012 43-769, chain 2 of 2): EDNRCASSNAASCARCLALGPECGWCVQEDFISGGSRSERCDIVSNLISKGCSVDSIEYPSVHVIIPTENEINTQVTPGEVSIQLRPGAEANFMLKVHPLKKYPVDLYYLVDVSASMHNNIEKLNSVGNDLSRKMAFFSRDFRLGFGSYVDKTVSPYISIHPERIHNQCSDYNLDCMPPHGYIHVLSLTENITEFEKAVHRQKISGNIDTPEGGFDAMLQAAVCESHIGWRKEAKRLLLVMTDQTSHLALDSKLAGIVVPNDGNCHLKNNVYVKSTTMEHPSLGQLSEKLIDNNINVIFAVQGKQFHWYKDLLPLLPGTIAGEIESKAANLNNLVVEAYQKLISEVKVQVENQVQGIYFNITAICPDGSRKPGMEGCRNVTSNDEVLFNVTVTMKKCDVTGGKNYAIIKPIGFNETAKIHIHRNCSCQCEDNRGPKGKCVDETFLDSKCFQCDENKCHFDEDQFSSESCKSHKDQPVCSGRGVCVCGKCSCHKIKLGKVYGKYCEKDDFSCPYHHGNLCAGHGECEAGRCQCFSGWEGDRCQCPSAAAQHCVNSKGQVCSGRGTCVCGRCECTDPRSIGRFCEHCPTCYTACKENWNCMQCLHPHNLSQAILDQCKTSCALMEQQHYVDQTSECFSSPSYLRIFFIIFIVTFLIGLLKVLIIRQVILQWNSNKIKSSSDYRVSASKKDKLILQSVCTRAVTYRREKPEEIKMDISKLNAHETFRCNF

| IC50, inhibition of TGFβ activation (SNB19 / TMLC luciferase reporter co-culture) [1] | Kd [2] | Kd [3] | Kd [4] | Kd [5] | Kd [6] | Binder | further results |
| --- | --- | --- | --- | --- | --- | --- | --- |
| 0.364 nM | 0.417 nM |  |  |  |  | ADWA16 (antibody, V domains shown, Murine IgG, detected with anti-mouse secondary antibody; also called parent murine IgG; murine parent ADWA16) VH: QVQLQQSGAELAKPGASMKMSCKASGYTFSSYWIYWVKQRPGQGLEWIGYINPTTGYTEYNQKFRDKATLTADKSSNTAYMQLSSLTSEDSAVYYCATEGGNWEDYWGQGTTLTVSS VL: DIQMTQTTSSLSASLGDRVTISCRASQDISNYLNWYQQKPDGTVKLLIYYTSRLYSGVPSRFSGSGSGTDYSLTISNLEPKDIATYYCQQFSELPRTFGGGTKLEIK | IC50, inhibition of SNB19 cell adhesion to TGFβ1-LAP [1]: 1.1 nM; inhibition of adhesion of L229 cells to LAP (potency relative to ADWA11) [1]: ~10 fold |
|  | 0.302 nM | 0.95 nM | 21 nM | 0.95 nM | 21 nM | ADWA16-chimera (antibody, V domains shown, It was captured on anti-human Fab-CH1 tips and detected with anti-human secondary, so it has human constant regions; also called chimeric ADWA-16; chimeric version of the parent ADWA16 murine IgG) VH: QVQLQQSGAELAKPGASMKMSCKASGYTFSSYWIYWVKQRPGQGLEWIGYINPTTGYTEYNQKFRDKATLTADKSSNTAYMQLSSLTSEDSAVYYCATEGGNWEDYWGQGTTLTVSS VL: DIQMTQTTSSLSASLGDRVTISCRASQDISNYLNWYQQKPDGTVKLLIYYTSRLYSGVPSRFSGSGSGTDYSLTISNLEPKDIATYYCQQFSELPRTFGGGTKLEIK |  |
| 1.36 nM |  | 1.16 nM | 3.15 nM | 0.83 nM | 5 nM | ADWA16-3 (antibody, V domains shown) VH: EVQLVESGGGLVQPGGSLRLSCAVSGYIFSSYWVYWVRQAPGKGLEWVGYINPTTGYTEYADSVKGRFTISRDNSKNTLYLQMNSLRAEDTAVYYCATEGGNWEDYWGQGTLVTVSS VL: DIQMTQSPSSLSASVGDRVTITCRASQDISNYINWYQQKPGKAPKLLIYYTSRLYGGVPSRFSGSGSGTDFTLTISSLQPEDFATYYCQQFSELPRTFGQGTKVEIK | Kd [7]: 0.83 nM; binding result [8]: no binding; binding result [9]: no binding; binding result [10]: no binding; Kd [11]: 0.389 nM |
|  | 0.459 nM |  |  | 0.73 nM | 4.8 nM | ADWA16-1 (antibody, V domains shown) VH: EVQLVESGGGLVQPGGSLRLSCAVSGYIFSSYWVYWVRQAPGKGLEWVGYINPTTGYTEYADSVKGRFTISRDNSKNTLYLQMNSLRAEDTAVYYCATEGGNWEDYWGQGTLVTVSS VL: DIQMTQSPSSLSASVGDRVTITCRASQDISNYINWYQQKPGKAPKLLIYYTSRLYSGVPSRFSGSGSGTDFTLTISSLQPEDFATYYCQQFSELPRTFGQGTKVEIK |  |
|  | 0.614 nM |  |  | 0.86 nM | 8 nM | ADWA16-4 (antibody, V domains shown) VH: EVQLVESGGGLVQPGGSLRLSCAVSGYIFSSYWVYWVRQAPGKGLEWVGYINPTTGYTEYADSVKGRFTISRDNSKNTLYLQMNSLRAEDTAVYYCATEGGNWEDYWGQGTLVTVSS VL: DIQMTQSPSSLSASVGDRVTITCRASKDISNYINWYQQKPGKAPKLLIYYTSRLYGGVPSRFSGSGSGTDFTLTISSLQPEDFATYYCQQFSELPRTFGQGTKVEIK |  |
|  | 0.498 nM |  |  | 2 nM | 8.5 nM | ADWA16-2 (antibody, V domains shown) VH: EVQLVESGGGLVQPGGSLRLSCAVSGYIFSSYWVYWVRQAPGKGLEWVGYINPTTGYTEYADSVKGRFTISRDNSKNTLYLQMNSLRAEDTAVYYCATEGGNWEDYWGQGTLVTVSS VL: DIQMTQSPSSLSASVGDRVTITCRASKDISNYLNWYQQKPGKAPKLLIYYTSRLYSGVPSRFSGSGSGTDFTLTISSLQPEDFATYYCQQFSELPRTFGQGTKVEIK |  |
| 0.58 nM |  | 0.688 nM | 1.06 nM |  |  | ADWA16-3.2 (antibody, V domains shown, also called humanized derivative of ADWA16) VH: EVQLVESGGGLVQPGGSLRLSCAVSGYIFSSYWVYWVRQAPGKGLEWVGYISPTTGYTVYADSVKGRFTISRDNSKNTLYLQMNSLRAEDTAVYYCATEGGNWEDYWGQGTLVTVSS VL: DIQMTQSPSSLSASVGDRVTITCRASQDISNYINWYQQKPGKAPKLLIYYTSRLYGGVPSRFSGSGSGTDFTLTISSLQPEDFATYYCQQFSELPRTFGQGTKVEIK | IC50, inhibition of SNB19 cell adhesion to TGFb1 LAP [1]: 0.65 nM; IC50, inhibition of SNB19 cell adhesion to TGFβ1-LAP [1]: 2.1 nM; Kd [12]: 1.1 nM; EC50 (read off the curve) [13]: ~0.4 nM; binding result [8]: no binding; binding result [9]: no binding; binding result [10]: no binding; Kd [14]: 0.392 nM; Kd [15]: 0.512 nM |
|  |  |  |  |  |  | ADWA11 (antibody, V domains shown, IgG; also called ADWA1l) VH: EVQLQQSGAELVRPGAFVKLSCKASGFNIKDYYMNWVLQRPEQGLEWIGWIDPDNGNTIYDPKFQGKASITADTSSNTAYLQLSSLTSEDTAVYYCARRLLMDYWGQGTSVTVSS VL: DIVMTQAAPSVPVTPGESVSISCRSTKSLLHFNGNTYLFWFLQRPGQSPQRLIYYMSNLASGVPDRFSGRGSGTDFTLRISRVEAEDVGVYYCMQSLEYPFTFGTGTKLEIK | IC50, inhibition of SNB19 cell adhesion to TGFb1 LAP [1]: 1.44 nM; Kd [16]: 1.04 nM; Kd [12]: 5.6 nM; EC50 (read off the curve) [13]: ~1 nM |

Reference: patent US20250002587A1 (University of California, published 2025)
